Test results as given in the nanobody polyreactivity screen of Harvey et al. (2022).

Test: yeast display, Sf9 membrane polyspecificity reagent, FACS + sequencing; frameworks hold sequencing errors
Summary of the method: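 After 36–48 hours of galactose induction, yeast (Saccharomyces cerevisiae BJ5465) displaying a synthetic nanobody library were stained at 4 °C for 1 hour with 10% biotinylated, detergent-solubilized Sf9 membrane reagent. Streptavidin microbeads enriched the stained cells before FACS sorting into low and high (top ~1%) gates on anti-HA and streptavidin fluorescence. Each clone's polyreactivity label reflects its gate of origin.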

Sequence	polyreactivity (PSR sort gate)
QDQLVESGGGLVQAGGSLRLSCAASGFILKYYAMGWYRQAPGKEREFVAAITVSGGSTYYADSVKGRFTISRDNAKNTVYLQMNSLKPVDTAVYYCNADYPRGGAGLPDYWGQGTQVTVSS	low polyreactivity
QDQLVESGGGLVQAGGSLRLSCAASGFNFMSKGMGWYRQAHGKETEFVAVITSSTGSTSYADSVKGRFTISRDNAKNTVYLQMNSLKPEDTGVFYCAADAYYYYAGGHYYWGQGTQVTVSS	low polyreactivity
QDQLVESGGGLVQAGGSLRLSCAASGFTCRYYAMGWYRQAPGKERELVAAITGSGTRTYYADSVKGRFTISRDNAKNTVYLQMNSLKPEETAVYYCYPPRQPRWFDYWGQGTQVTVSS	high polyreactivity
QDQLVESGGGLVQAGGSLRLSCAASGFTFDENAMGWYRQAPGINYSGASTYYADSVKGRFTISRDNAKNTVYLQMNSLKPEDTAVYYCAAEVVAQMNYWGQGTQVTVSS	low polyreactivity
QDQLVESGGGLVQAGGSLRLSCAASGFTFGNNARGWYRQAPGKERQFVATISRRGGSTYYADSVKGRFTISRDNAKYTVYLQMNSLKPEDTAVYSCAVDRAGIKLAAGYDYWGQGTQVTVSS	high polyreactivity
QDQLVESGGGLVQAGGSLRLSCAASGFTFYGYAMGWYRQAQGKERELVAAISSSGGRTYYADSVKGRFTISRDNAKNTVYLQMNSLKPEDTAVYYCAARARYIRGGGSRAYIGYYWGQGTQVTVSS	high polyreactivity
QDQLVESGGGLVQAGGSLRLSCAASGGIFPDNAMGWSRKAPGKERELVATISWSGGSTYADSVKWRFTISRDNAKNTVYLQMNRLKPEDTAVYYCAAGSAYLWGQGTQVSVSS	low polyreactivity
QDQLVESGGGLVQAGGSLRLSCAASGGIFYQYAMGWYRQAPGKERELVATITSGGRTSYADSVKGRFTISRDNAKNTFYLQMNSLNPEDTAVYYCAATTGWYGARYGYWGQGTQVTVSS	high polyreactivity
QDQLVESGGGLVQAGGSLRLSCAASGIIFAKYAMGWSRQAPGNERELVAAINARGGSTYYADSVKGRFTISRDNAMNTVYLQMNSLKPEDTAVYYCAAERRSRFGNGVTYDYWGQGTQVTVSS	high polyreactivity
QDQLVESGGGLVQAGGSLRLSCAASGIIFPQYTMGWYRQAPGKERELVAVITSGGSTYYADSVKGRFTISRDNAKNTVYLQMNSLKTEDTAVYYCAADAFYKFDYWGQGTQVTVSS	high polyreactivity
QDQLVESGGGLVQAGGSLRLSCAASGIILGGYVMGWYRQAPGKERELVAALSYSGGRTDYADSVKGRFTISRDKAKNTVYLQMNILNPEDTAVYYCATEYWRYHGITKGYTRYDYWGQGTQVTVSS	high polyreactivity
QDQLVESGGGLVQAGGSLRLSCAASGITFKFYAMGWYRQAPGKERELVAAISWSGGSTYYADSVKGRFTISRDNAKNTVYLQMNSLKPEDTAVYYCAAYTGWIYHTRYRRDYWGQGTQVTVSS	high polyreactivity
QDQLVESGGGLVQAGGSLRLSCAASGITFNRYAMGWYRQAPGKERELVAAISRTGGSTYYADSVKARFTISRDNAKNTVYLQMNSLKPEDTAVYYCASRYTKGMYYWGQVTQVTVSS	high polyreactivity
QDQLVESGGGLVQAGGSLRLSCAASGITFQRYAMGGYRQAPGKERELVAVINFRGSNTFYADSVKGRFTISRDNAKNSVYLQMNSLIPEDTAVYYCAASYVIDIRGYGYWGQGTQVTVSS	low polyreactivity
QDQLVESGGGLVQAGGSLRLSCAASGITFQYYAMGWYRQAPGKERELVAAITKRGGSTYYADSVKGRFTISRDNAKNTVYLQMKSLKPEDTAVYYCAADYGSWRNYIFLDDYWGQGTQVTVSS	high polyreactivity
QDQLVESGGGLVQAGGSLRLSCAASGITFRYYAMGWYRQAPGKERELVAAITGGGGSTYADSVKGRFTISRDNAKNTVYLQMNSLKPEDTAVYYCNATPRARSLPLRYQHDYWLQGTQVTVSS	low polyreactivity
QDQLVESGGGLVQAGGSLRLSCAASGITFYRNAMGWYRQAPGKERELVAAISRRGGITRYADSVKGRFTISRDNAKNTVYLQMNSLKPEDTAVYYCAKAIGSTALRRATEDYWGQGTQVTVSS	high polyreactivity
QDQLVESGGGLVQAGGSLRLSCAASGITSNPYDMGWYRQAAGKERELVAVITSGGSTSYADSVKGRFTISRDNAKNTVYLQLISLKREDTAVYYCNSVYAGWRGGNYWGQGTQVTVSS	low polyreactivity
QDQLVESGGGLVQAGGSLRLSCAASGLIFKYNAMGWSRQAPGKERELVADINRSGGSTYYADSVKGRFTISRDNSKNTVSLQMNSLKPEDSAVYDCAAERVSLYWVIFGYWGQGTQVTVSS	low polyreactivity
QDQLVESGGGLVQAGGSLRLSCAASGLIFYDNLGWYRQAPGKERELVAAISSSGGSTSYADSVKGRFTISRDNAKNTVYLQMNSLKPEDTAVYYCAADSYPAYLGFVGFDYWGQGTQVTVSS	low polyreactivity
QDQLVESGGGLVQAGGSLRLSCAASGLNLGIYAMGWYRQAPGKERELVAAISRGGGSTYYADSVKGRFTISRDNAKNTVYLQMNSLKPEDTAVFYCNAVRYRYGVFPYYYWGQGTQVTVSS	high polyreactivity
QDQLVESGGGLVQAGGSLRLSCAASGLTFYSNTMGWYRQAPGKERELVAGISWGGDTTYYADSVKGRFTISRDNAKNTVYLQMNSLKPEDTAVYYCAADRSYWRHRYSYDYWGQGTQVTVSS	low polyreactivity

Sequence	polyreactivity (PSR sort gate)
QDQLVESGGGLVQAGGSLRLSCAASGNIFDYYAMGWYRQAPGKERELVATITWSSGRTYYADSVKGRFTISRDNAKNTVYLQMNSLKTEDTAVYYCNTRSYTRYDYWGQGTQVTVSS	low polyreactivity
QDQLVESGGGLVQAGGSLRLSCAASGRIFKFNAMGWYRPAPGKERELVAAITSGGSTNYADSVKGRFTLSRDNEKNTVYLQMNSLKREDTAVYYCAKSTPRFYPRGFYYWGHGTQVTVSS	low polyreactivity
QDQLVESGGGLVQAGGSLRLSCAASGRIFRYYAMGWYRQAPGKERELVAGMSGSGGSTYYADSVKGRFTISRDNAKNTVYLQMNSLKPEDTAVYYCAADYVRVGSLHGVYTYKKYDYWGQGTQVTVSS	high polyreactivity
QDQLVESGGGLVQAGGSLRLSCAASGRLFATYAMGWNRQAPGKERELVAAISDSGGRTYYADSVTGRFTSSRDNAKNTVYLQMNSLKPEDTAVYYCAAKNGDRYARGYWGQGTQVTVSS	high polyreactivity
QDQLVESGGGLVQAGGSLRLSCAASGRNFYRNAMGWYRPAPGKEWEVVAAITQSSGSTYYADSVKGRCTISRDNAKHTVYLQMNSLKPEDTAVYYCAALVRKYGVDYWGQGTQVTVSS	high polyreactivity
QDQLVESGGGLVQAGGSLRLSCAASGRTFDDYAMGWSRPAPGKERELVAAINSGGNTYYADSVKGRFTISRDNAKNTVYLQMNSLKREDTADYYCAAYYRDKLSGYNYWRQGTQVTVSS	high polyreactivity
QDQLVESGGGLVQAGGSLRLSCAASGRTFGRYAMGWYRQAPGKERELVASISYSTDSTYYADSVKGRFTISRDNAKNTVYLQMNSLKPEDTAVYYCATDSVNVGSYVGDKHDYWGQGTQVTVSS	low polyreactivity
QDQLVESGGGLVQAGGSLRLSCAASGRTFPGYAMGWYRQAPGKERELVATSTVSDGSTYYADSVKGRFTISRDNAMNTVYLHMNSLIAEDTAVYYCAKDGGRKRSYSDFDYWRQGTQVTVSS	low polyreactivity
QDQLVESGGGLVQAGGSLRLSCAASGRTFRRYAMGWYRQAPGKERELVAAISASGGSTYYADSVKGRFTISRDNAKNTVYLQMNSLKPEDTAVYYCYALHRAGLFGHYPYESWGQGTQVTVSS	high polyreactivity
QDQLVESGGGLVQAGGSLRLSCAASGRTFSRYALGWYRQAPGKERELVAAISWSGGTTHYADSVKGRFTISRDNAKNTVYLLMNRLKPEDTAFYYCNKLRQIEFWGQGTQVTVSS	high polyreactivity
QDQLVESGGGLVQAGGSLRLSCAASGRTFSYYTMGWYRQPPGKERELVARISNRGTNTYYADSVKGRFTISRDNAKNTVYLQLNSLKPEDTAVYYCAKYYYPSIVGYDSWGQGTQVTVSS	low polyreactivity
QDQLVESGGGLVQAGGSLRLSCAASGRTFTGYTMGWYRQAPGKERELVASISSSGGRTYYADSVKGRFTISRDNAKNTVFLQMKSLKPEDTAVYYCAKRGAYGYGYYSYDYWGQGTQVTVSS	high polyreactivity
QDQLVESGGGLVQAGGSLRLSCAASGRTFTRYAMGWYRPAPGKERELVAAISKRGGSTYYADSVKGRFTISRDNAKNTVYLQMNSLKPEDTAVYYCAADQPYHDSEYWGQGTQVTVSS	high polyreactivity
QDQLVESGGGLVQAGGSLRLSCAASGRTFTSNAMGRYRQAPGKERELVAAINFRGDSTYYADSVKGRFTISRDNAKNTVYLQMNSLKPEDSAVYYCAAVGGRSSYRLDYWGQGTQVTVSA	low polyreactivity
QDQLVESGGGLVQAGGSLRLSCAASGRTFVHYVMGWYRQAPGKERELVAAITSSGGSTYADSVKGRFTISRDNAKNTVYLQMNSLKPEDTAVYYCAADYLDGVGDVEHDYWGQGTQVTVSS	low polyreactivity
QDQLVESGGGLVQAGGSLRLSCAASGRTFVSNGMGWYRQAPGKERELLADINDGDDTYYADSVKGRFTISRDNAKNTVYLQMNSLKPEDTAVYYCAADPYWFFPHYDSWGQGTQVTVSS	low polyreactivity
QDQLVESGGGLVQAGGSLRLSCAASGRTFVSYVMGGYRQAPGKERELVAAIRRRGGRTYYSDSVKGRFTISRDNAKNTVYLQMNSLKPEDTAVYYCAAAQPGTNAYRVGSWGQGTQVSVSS	high polyreactivity
QDQLVESGGGLVQAGGSLRLSCAASGRTFVYNAMGWYRKAPGKVRELVAAITRGGSTNYADSVKGRFTISRDNAKNTVYLQMNILKPEDTAGYYCAAGLKRYGSYPWLKSGMGYWGQGTQVTVSS	high polyreactivity
QDQLVESGGGLVQAGGSLRLSCAASGRTFWYYAMGWYRQATGKERELVAAISSRGGTTYYADSVKGRFTISRDNAKNTVYLQMNSVKPEDTAVYYCASERWDLWLLYDYWGQGTQVTVSS	high polyreactivity
QDQLVESGGGLVQAGGSLRLSCAASGRTFYRNAMGWYRQAPGKERELVAAISGSGVRTYYADSVKGRFTISRDNAKNTVYLHMNSLKPEDTAVYYCARSVTWFRGRFSPDYGSWGQGTQVTVSS	high polyreactivity
QDQLVESGGGLVQAGGSLRLSCAASGRTFYRYAMGWSRQAPGKERELVAVISTDGSSTYYADSVKGRFTISRDNAKNTVYLQMNSLKPVDTAVYYCAARAPESYVSTRAHYYWGQGTQVTVSS	high polyreactivity
